Results as given in patent US20250236663A1 (NEURACLE SCIENCE, published 2025).
Read-outs that look alike come from different tables or passages of the source.

T1: FAM19A5-M3
T1 construct: also called FAM19A5 mutant M3
T1 FAM19A5 mutant: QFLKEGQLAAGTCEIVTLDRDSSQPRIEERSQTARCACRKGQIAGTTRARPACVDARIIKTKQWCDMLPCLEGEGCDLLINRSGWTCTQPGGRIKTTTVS

T2: FAM19A5-M1
T2 construct: also called FAM19A5 mutant M1
T2 FAM19A5 mutant: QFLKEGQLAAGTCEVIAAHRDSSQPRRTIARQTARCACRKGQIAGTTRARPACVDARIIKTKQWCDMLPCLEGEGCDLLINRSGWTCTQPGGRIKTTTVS

T3: FAM19A5-M5
T3 construct: also called FAM19A5 mutant M5
T3 FAM19A5 mutant: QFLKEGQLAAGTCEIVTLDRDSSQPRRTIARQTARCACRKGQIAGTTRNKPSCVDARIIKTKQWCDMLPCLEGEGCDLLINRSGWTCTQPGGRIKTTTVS

T4: FAM19A5-M4
T4 construct: also called FAM19A5 mutant M4
T4 FAM19A5 mutant: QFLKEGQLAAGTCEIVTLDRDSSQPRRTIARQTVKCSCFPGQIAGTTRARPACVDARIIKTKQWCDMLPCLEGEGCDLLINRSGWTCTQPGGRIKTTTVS

T5: FAM19A5-M2
T5 construct: also called FAM19A5 mutant M2
T5 FAM19A5 mutant: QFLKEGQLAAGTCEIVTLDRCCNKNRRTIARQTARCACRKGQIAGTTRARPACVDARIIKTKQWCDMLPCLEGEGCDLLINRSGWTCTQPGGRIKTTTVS

T6: FAM19A5 mutant M6 (human)
T6 construct: FAM19A5 with region 6 replaced by the consensus of FAM19A1-4; The entry already carries the changes
T6 chain: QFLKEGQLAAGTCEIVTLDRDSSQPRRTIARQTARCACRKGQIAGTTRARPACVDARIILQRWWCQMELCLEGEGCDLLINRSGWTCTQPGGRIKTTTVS

T7: FAM19A5 mutant M7 (human)
T7 construct: FAM19A5 with region 7 replaced by the consensus of FAM19A1-4; The entry already carries the changes
T7 chain: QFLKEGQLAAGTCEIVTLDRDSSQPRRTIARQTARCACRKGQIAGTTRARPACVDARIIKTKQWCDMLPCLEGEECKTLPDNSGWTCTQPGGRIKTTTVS

T8: FAM19A5 mutant M8 (human)
T8 construct: FAM19A5 with region 8 replaced by the consensus of FAM19A1-4; The entry already carries the changes
T8 chain: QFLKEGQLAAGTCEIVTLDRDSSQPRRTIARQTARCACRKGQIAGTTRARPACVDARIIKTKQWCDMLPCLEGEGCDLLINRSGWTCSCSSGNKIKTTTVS


Experiments:
FAM19A5-M3 [1] = target: T1, FAM19A5-M3; test: ELISA on phage-displayed FAM19A5 mutants; y axis without label; no blank in the panel, lowest bars about 0.05
FAM19A5-M1 [2] = target: T2, FAM19A5-M1; test: as above
FAM19A5-M5 [3] = target: T3, FAM19A5-M5; test: as above
FAM19A5-M4 [4] = target: T4, FAM19A5-M4; test: as above
FAM19A5-M2 [5] = target: T5, FAM19A5-M2; test: as above
FAM19A5 mutant M6 [6] = target: T6, FAM19A5 mutant M6; test: ELISA on phage-displayed FAM19A5 mutants; y axis without label
FAM19A5 mutant M7 [7] = target: T7, FAM19A5 mutant M7; test: as above
FAM19A5 mutant M8 [8] = target: T8, FAM19A5 mutant M8; test: as above
FAM19A5-M3 [9] = target: T1, FAM19A5-M3; test: ELISA on phage-displayed FAM19A5 mutants; y axis without label; no blank in the panel
FAM19A5-M1 [10] = target: T2, FAM19A5-M1; test: as above
FAM19A5-M5 [11] = target: T3, FAM19A5-M5; test: as above
FAM19A5-M4 [12] = target: T4, FAM19A5-M4; test: as above
FAM19A5 mutant M7 [13] = target: T7, FAM19A5 mutant M7; test: as above
FAM19A5-M2 [14] = target: T5, FAM19A5-M2; test: as above
FAM19A5 mutant M6 [15] = target: T6, FAM19A5 mutant M6; test: ELISA on phage-displayed FAM19A5 mutants; y axis without label
FAM19A5 mutant M8 [16] = target: T8, FAM19A5 mutant M8; test: as above

| binding result (FAM19A5-M3 [1]) | binding result (FAM19A5-M1 [2]) | binding result (FAM19A5-M5 [3]) | binding result (FAM19A5-M4 [4]) | binding result (FAM19A5-M2 [5]) | binding result (FAM19A5 mutant M6 [6]) | binding result (FAM19A5 mutant M7 [7]) | binding result (FAM19A5 mutant M8 [8]) | binding result (FAM19A5-M3 [9]) | binding result (FAM19A5-M1 [10]) | binding result (FAM19A5-M5 [11]) | binding result (FAM19A5-M4 [12]) | binding result (FAM19A5 mutant M7 [13]) | binding result (FAM19A5-M2 [14]) | binding result (FAM19A5 mutant M6 [15]) | binding result (FAM19A5 mutant M8 [16]) | Binder |
| --- | --- | --- | --- | --- | --- | --- | --- | --- | --- | --- | --- | --- | --- | --- | --- | --- |
| binds | binds | binds | binds | binds | no binding | no binding | no binding |  |  |  |  |  |  |  |  | Anti-FAM19A5 (P2-A03) (antibody, V domains shown, Only variable domains are tied to the name) VH: QSVEESGGRLVTPGTPLTLTCTVSGFSLNNYDMSWVRQAPGKGLEYIGFMDTDGSAYYATWAKGRFTISRTSTTVDLKMTSPTTEDTATYFCARRGSSYYGGIDIWGPGTPVTVSL VL: ELDLTQTPASVSEPVGGTVTIKCQASQSIGGNLAWYQQKPGQPPKLLIYRASTLASGVPSRFKGSGSGTDFTLTISDLECADAATYYCQSPAYDPAAYVGNAFGGGTELEIL |
|  |  |  |  |  |  |  |  | binds | binds | binds | binds | binds | binds | no binding | no binding | Anti-FAM19A5 (13B4) (antibody, V domains shown, Only variable domains are tied to the name) VH: QVQLQESGPGLVKPSGTLSLNCAVSGGSISSSNWWSWVRQPPGKGLEWIGEIYHGGTTNYNPSLKGRVTMSVDKTKNQFSLRLSSVTAVDTAVYYCARWQLVGGLDVWGQGTTVTVSS VL: SYELTQPLSVSVSPGQTASITCSGDKLGNVYASWYQQKPGQSPTLVIYQDNKRPSGIPERFSGSNSGKTATLTISGTQALDEADYYCQAWDSSTAVFGGGTKLTVL |
